From PMC8142252, “The Arabidopsis thaliana chloroplast division protein FtsZ1 counterbalances FtsZ2 filament stability in vitro” (The Journal of Biological Chemistry, 2021) come the findings set out here.

This assay addresses T1, AtFtsZ2 (Arabidopsis thaliana FtsZ2-1, full-length mature protein lacking its transit peptide) (Arabidopsis thaliana, UniProt O82533 49-478).
T1 construct: Purified AtFtsZ2 runs as a doublet on SDS-PAGE; also called AtFtsZ2-1; source: E. coli DE3 Rosetta cells overexpressing the E. coli ftsQAZ operon, purified (Ni-NTA); not shown: His6, C-terminal, kept
T1 sequence (looked up): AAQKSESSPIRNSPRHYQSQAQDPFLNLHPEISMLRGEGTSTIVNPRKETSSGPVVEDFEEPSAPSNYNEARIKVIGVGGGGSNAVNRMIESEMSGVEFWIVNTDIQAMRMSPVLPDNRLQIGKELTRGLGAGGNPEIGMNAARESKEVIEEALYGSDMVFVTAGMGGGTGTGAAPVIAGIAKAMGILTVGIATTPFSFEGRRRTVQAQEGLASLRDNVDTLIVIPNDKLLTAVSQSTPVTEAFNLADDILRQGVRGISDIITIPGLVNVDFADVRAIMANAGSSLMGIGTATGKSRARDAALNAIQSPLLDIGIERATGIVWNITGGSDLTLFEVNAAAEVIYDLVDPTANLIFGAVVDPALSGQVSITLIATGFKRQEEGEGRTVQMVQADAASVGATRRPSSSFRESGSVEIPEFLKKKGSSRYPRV
Nature of the assay: 90° light scattering; 5 μM AtFtsZ2 (or AtFtsZ2core) mixed with AtFtsZ1, AtFtsZ1 D275A (or AtFtsZ1core) at various ratios before start, HMK buffer, room temperature, started by 10 μM or 500 μM GTP. The following applies: both partners purified.

B1: AtFtsZ1 (Arabidopsis thaliana FtsZ1-1, full-length mature protein lacking its transit peptide) (natural protein, UniProt Q42545 58-433, looked up)
chain: RSKSMRLRCSFSPMESARIKVIGVGGGGNNAVNRMISSGLQSVDFYAINTDSQALLQSSAENPLQIGELLTRGLGTGGNPLLGEQAAEESKDAIANALKGSDLVFITAGMGGGTGSGAAPVVAQISKDAGYLTVGVVTYPFSFEGRKRSLQALEAIEKLQKNVDTLIVIPNDRLLDIADEQTPLQDAFLLADDVLRQGVQGISDIITIPGLVNVDFADVKAVMKDSGTAMLGVGVSSSKNRAEEAAEQATLAPLIGSSIQSATGVVYNITGGKDITLQEVNRVSQVVTSLADPSANIIFGAVVDDRYTGEIHVTIIATGFSQSFQKTLLTDPRAAKLLDKMGSSGQQENKGMSLPHQKQSPSTISTKSSSPRRLFF
notes: also called AtFtsZ1-1; source: E. coli DE3 Rosetta cells overexpressing the E. coli ftsQAZ operon, purified (Ni-NTA); not shown: His6, C-terminal, kept
As for B1, the binding result is reported as “binds”.
